Data: US20110065633A1, “ESTER-BASED PEPTIDE PRODRUGS” (INDIANA UNIVERSITY RESEARCH AND TECHNOLOGY CORPORATION, priority 2008, published 2011)
Where no end group is shown, it is not given here. Side-chain parts run from the residue outwards. [ ]: non-standard residue; d: D form. The star is where a group is joined. Desaminohistidyl = O=C(CCc1c[nH]cn1)*; PLA = phenyl lactic acid; Aib = CC(C)(N)C(=O)O

Key:
GLP-1 receptor [1] = molecular target: T1, GLP-1 receptor (Homo sapiens, UniProt P43220); assay: Luciferase-based reporter gene assay for cAMP detection, GLP-1 receptor; type: cell-based; parameters: expressed in transfected cells; host or cells: HEK293; conditions: for Potency compared with native GLP-1: luciferase assay, in vitro
Target sequence in this assay (P43220 24-463, species assumed): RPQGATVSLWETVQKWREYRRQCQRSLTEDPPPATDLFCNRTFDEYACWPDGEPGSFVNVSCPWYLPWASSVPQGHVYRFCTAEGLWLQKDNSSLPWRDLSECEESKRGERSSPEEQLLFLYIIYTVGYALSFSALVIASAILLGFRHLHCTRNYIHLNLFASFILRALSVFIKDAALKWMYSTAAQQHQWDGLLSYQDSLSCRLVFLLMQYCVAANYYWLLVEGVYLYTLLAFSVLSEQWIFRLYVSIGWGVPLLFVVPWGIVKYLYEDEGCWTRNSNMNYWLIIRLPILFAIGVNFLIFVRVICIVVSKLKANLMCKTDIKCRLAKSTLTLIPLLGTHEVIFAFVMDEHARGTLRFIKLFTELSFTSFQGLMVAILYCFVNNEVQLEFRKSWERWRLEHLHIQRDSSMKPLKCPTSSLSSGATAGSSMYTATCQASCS

GLP-1 receptor [2] = molecular target: T1, GLP-1 receptor; assay: cell-based or functional assay
Target sequence in this assay (P43220 24-463 limits assumed): as the sequence (P43220 24-463, species assumed) above

glucagon receptor [3] = molecular target: glucagon receptor (UniProt P47871); assay: cell-based or functional assay
glucagon receptor [4] = molecular target: glucagon receptor (UniProt P47871); assay: cell-based or functional assay; remark: listed apart in the source
[5] = tested on: diabetes-induced obesity (DIO) mice; assay: Blood glucose after glucose injection in DIO mice; type: in vivo; conditions: for blood glucose after glucose injection compared with corresponding non-prodrug form: 2 nmol/kg intraperitoneally 15 min before […] glucose, FIGS. 12, 13; for blood glucose concentrations compared with vehicle control: 15 or 70 nmol/kg intraperitoneally 60 min before […] glucose, FIG. 15
Method: Six groups of diabetes-induced obesity (DIO) mice (eight mice per group) having an initial average body weight of 49.5 g were intraperitoneally injected with 2 nmol/kg of a PBS vehicle control or one of Peptides A-E described below:
(§1) Fifteen minutes after injection with one of the compounds or with vehicle control (at time point 0), a 25% (w/v) glucose saline solution was injected at a dose of 1.5 g per kg of body weight. Blood glucose concentrations of the mice were measured at the time of injection of the compound or vehicle control, at the time of glucose injection, and at 15, 30, 60, and 120 minutes after glucose injection.
Blood glucose levels of the mice were measured as described in Example 5.
(§2) Nine groups of diabetes-induced obesity (DIO) mice (8 mice per group) having an initial average body weight of 56 g were intraperitoneally injected once and followed for one week with 15 or 70 nmol/kg of Peptides Y, Z, F-Peg, and G-Peg described below or PBS vehicle control.
as §1, with “Sixty” for “Fifteen”, “peptides” for “compounds”, “peptide” for “compound”, “control (at time point −60),” for “control,”, “injection (at time point 0),” for “injection,”

[6] = tested on: diabetes-induced obesity (DIO) mice; assay: Body weight and food intake of DIO mice over one week; type: in vivo; conditions: single injection 15 or 70 nmol/kg; for total efficacy as measured over a week study: prodrug versus non-prodrug; for total food intake: FIG. 17
Method: as §2
The body weight of each mouse of each group was measured on 1, 3, 5, and 7 days after injection with the vehicle control or peptide. Total change in body weight was calculated by substracting the average body weight of a group at the time of injection with vehicle or peptide from the average body weight of the group seven days after injection. Food intake by each group of mice was measured during the course of the week as well. Total food intake was measured seven days after injection with vehicle control or peptide. […] The Ser11 substitution or the des-amino His7 reduces total efficacy.

GLP-1 receptor [7] = molecular target: GLP-1 receptor (UniProt P43220 24-463, limits assumed); assay: cell-based or functional assay

Chain of glucagon receptor (P47871 26-477 limits assumed): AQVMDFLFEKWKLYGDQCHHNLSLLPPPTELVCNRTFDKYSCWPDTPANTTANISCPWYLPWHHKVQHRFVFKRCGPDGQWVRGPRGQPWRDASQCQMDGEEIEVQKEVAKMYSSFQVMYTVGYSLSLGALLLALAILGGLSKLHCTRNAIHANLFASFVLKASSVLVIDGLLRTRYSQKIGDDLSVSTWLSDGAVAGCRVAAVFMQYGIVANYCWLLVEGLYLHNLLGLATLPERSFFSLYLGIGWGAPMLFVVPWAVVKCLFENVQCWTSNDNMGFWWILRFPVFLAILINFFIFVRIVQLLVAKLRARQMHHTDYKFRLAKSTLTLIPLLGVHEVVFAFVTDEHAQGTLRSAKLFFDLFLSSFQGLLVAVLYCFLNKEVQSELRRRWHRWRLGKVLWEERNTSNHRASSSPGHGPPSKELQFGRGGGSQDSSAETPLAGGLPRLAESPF

Q: Which Agonist character (GLP-1 receptor [1]) does the source give for “F^7,GLP(8-37): aa 7-37 of GLP-1 with the His at position 7 replaced with Phe (FAEGTFTSDVSSYLEGQAAKEFIAWLVKGRG; Glucagon-like peptide 1(7-37); UniProt P01275 98-128, looked up, variant H7F)” here?
A: Its Agonist character is “full agonist”.

Q: What about the “potency of native GLP-1” value (GLP-1 receptor [1]; percent of the potency of native GLP / GLP-1) of the same molecule?
A: Its value is 10%.

Q: How did the % potency with respect to parent; before incubation (GLP-1 receptor [2]) turn out when G^5V^6-O-F^7,GLP(8-36)CEX (peptide) was run?
A: Its % potency with respect to parent; before incubation is 10.9%.

Q: And the % potency with respect to parent; prodrug incubated in PBS for 24 hrs before the assay (GLP-1 receptor [2])?
A: Its % potency with respect to parent; prodrug incubated in PBS for 24 hrs before the assay is 46%.

Q: What about the % potency with respect to parent; prodrug incubated in PBS for 168 hrs before the assay (GLP-1 receptor [2]) of the same molecule?
A: Its % potency with respect to parent; prodrug incubated in PBS for 168 hrs before the assay is 95.8%.

Q: Which Glu IC50 (glucagon receptor [3]) does the source give for “Glucagon (6-CEX) analog E9, E16K20(lactam) (peptide)” here?
A: Its Glu IC50 is 42 nM.

Q: And the GLP-1 EC50 (GLP-1 receptor [2])?
A: Its GLP-1 EC50 is 36 nM.

Q: And the Glucagon IC50 (glucagon receptor [4])?
A: Its Glucagon IC50 is 42 nM.

Q: How did the Glu IC50 (glucagon receptor [3]) turn out when “Glucagon (6-CEX) analog E9, K12, E16 (peptide)” was run?
A: Its Glu IC50 is 762 nM.

Q: And the Glucagon IC50 (glucagon receptor [4])?
A: The Glucagon IC50 was 762 nM.

Q: Which results are given for “Glucagon (6-CEX) analog E9, K12E16(lactam) (peptide)”?
A: Glu IC50 (glucagon receptor [3]): 2010 nM; GLP-1 EC50 (GLP-1 receptor [2]): 63 nM; Glucagon IC50 (glucagon receptor [4]): 2010 nM

Q: How did the Glucagon IC50 (glucagon receptor [4]) turn out when “Glucagon (6-CEX) analog [PLA6, E9, E16K20(Lactam)] (peptide)” was run?
A: Its Glucagon IC50 is 20 nM.

Q: For “Glucagon (6-CEX) analog [PLA6, E9, K12E16(Lactam) (peptide)”, which Glu IC50 (glucagon receptor [3]) is on record?
A: The Glu IC50 was 72 nM.

Q: And the GLP-1 EC50 (GLP-1 receptor [2])?
A: The GLP-1 EC50 was 6 nM.

Q: And the Glucagon IC50 (glucagon receptor [4])?
A: The Glucagon IC50 was 72 nM.

Q: “HAEGTFTSDVSSYLEGQAAKEFIAWLVKGRGKRNRNNIA [GLP-oxyntomodulin, GLP-oxyntomodulin chimeric peptide]” was tested. Which “Potency compared with native GLP-1” value (GLP-1 receptor [1]) did it give?
A: Its value is “at least as potent as the native GLP-1 peptide”.

Q: How did the “% potency with respect to parent” value (GLP-1 receptor [1]; Table 7, before incubation (0 hrs), parent drug as such) turn out when “HO-FAEGTFTSDVSSYLEGQAAKEFIAWLVKGXPSSGAPPPS [HO—F^7,GLP(8-36)-CEX]” was run?
A: Its value is 100% (parent drug).

Q: What about the “Potency compared with native GLP-1” value (GLP-1 receptor [1]) of the same molecule?
A: The value was “at least as potent as the native GLP-1”.

Q: What does the source list for HO-F^5F^6-O-F^7,GLP(8-36)-CEX (peptide)?
A: % potency with respect to parent; before incubation (GLP-1 receptor [2]): 3.7%; % potency with respect to parent; prodrug incubated in PBS for 24 hrs before the assay (GLP-1 receptor [2]): 17.2%

Q: With “H^7AEGTFTSDVSSYLEGQAAKEFIAWLVKGXPSSGAPPPS-amide [GLP(7-36)-CEX amide]” as the molecule, how does the “Potency compared with native GLP-1” value (GLP-1 receptor [1]) read?
A: The value was “approximately ten times more potent in vitro than the native GLP-1 sequence”.

Q: “Peptide A: prodrug of Peptide B, dipeptide d-Phe-dPhe attached via the O-terminus ({dF-dF-PLA}-[Aib]EGTFTSDVSSYLEEQAAKEFIAWLVKGRPSSGAPPPS-NH2; also: PLA bonded to D-Phe via an ester bond)” was tested. Which “blood glucose after glucose injection compared with corresponding non-prodrug form” value [5] did it give?
A: Its value is “higher than the blood glucose levels of mice injected with the corresponding non-prodrug forms”.

Q: With “Peptide C: prodrug of Peptide B, dipeptide d-Phe-d-Val attached via the O-terminus ({dF-dV-PLA}-[Aib]EGTFTSDVSSYLEEQAAKEFIAWLVKGRPSSGAPPPS-NH2; also: PLA bonded to D-Val via an ester bond)” as the molecule, how does the “blood glucose after glucose injection compared with corresponding non-prodrug form” value [5] read?
A: The value was “higher than the blood glucose levels of mice injected with the corresponding non-prodrug forms”.

Q: With “Peptide E: prodrug of Peptide D, d-Phe-d-Val ester-linked to Ser at position 11 (H[Aib]EGS([dV-dF])FTSDVSSYLEEQAAKEFIAWLVKGRPSSGAPPPS-NH2; N-terminus assumed; SMILES CC[C@H](C)[C@H](NC(=O)[C@H](Cc1ccccc1)NC(=O)[C@H](CCC(=O)O)NC(=O)[C@H](CCCCN)NC(=O)[C@H](C)NC(=O)[C@H](C)NC(=O)[C@H](CCC(N)=O)NC(=O)[C@H](CCC(=O)O)NC(=O)[C@H](CCC(=O)O)NC(=O)[C@H](CC(C)C)NC(=O)[C@H](Cc1ccc(O)cc1)NC(=O)[C@H](CO)NC(=O)[C@H](CO)NC(=O)[C@@H](NC(=O)[C@H](CC(=O)O)NC(=O)[C@H](CO)NC(=O)[C@@H](NC(=O)[C@H](Cc1ccccc1)NC(=O)[C@H](COC(=O)[C@H](NC(=O)[C@H](N)Cc1ccccc1)C(C)C)NC(=O)CNC(=O)[C@H](CCC(=O)O)NC(=O)C(C)(C)NC(=O)[C@@H](N)Cc1c[nH]cn1)[C@@H](C)O)C(C)C)C(=O)N[C@@H](C)C(=O)N[C@@H](Cc1c[nH]c2ccccc12)C(=O)N[C@@H](CC(C)C)C(=O)N[C@H](C(=O)N[C@@H](CCCCN)C(=O)NCC(=O)N[C@@H](CCCNC(=N)N)C(=O)N1CCC[C@H]1C(=O)N[C@@H](CO)C(=O)N[C@@H](CO)C(=O)NCC(=O)N[C@@H](C)C(=O)N1CCC[C@H]1C(=O)N1CCC[C@H]1C(=O)N1CCC[C@H]1C(=O)N[C@@H](CO)C(N)=O)C(C)C)” as the molecule, how does the “blood glucose after glucose injection compared with corresponding non-prodrug form” value [5] read?
A: Its value is “higher than the blood glucose levels of mice injected with the corresponding non-prodrug forms”.

Q: For “Peptide F-Peg: Peptide F analog with Cys at 30 covalently linked to a 40 kDa PEG ([Desaminohistidyl]SEGTFTSDVSSYLEEQAAKEFIC(PEG 40 kDa)WLVKGRPSSGAPPPS-NH2)”, which “total efficacy as measured over a week study” value [6] is on record?
A: Its value is “comparable”.

Q: What about the total food intake ([6]; seven days) of the same molecule?
A: The total food intake was “decreased”.

Q: And the “blood glucose concentrations compared with vehicle control” value [5]?
A: Its value is “less as compared to the blood glucose levels of mice injected with vehicle control”.

Q: “Peptide G-Peg: pegylated prodrug, d-Phe-d-Val ester-linked to the Ser at position 8 ([Desaminohistidyl]S([dV-dF])EGTFTSDVSSYLEEQAAKEFIC(PEG 40 kDa)WLVKGRPSSGAPPPS-NH2)” was tested. Which “total efficacy as measured over a week study” value [6] did it give?
A: The value was “comparable”.

Q: And the total food intake ([6]; seven days)?
A: Its total food intake is “decreased”.

Q: And the “blood glucose concentrations compared with vehicle control” value [5]?
A: The value was “less as compared to the blood glucose levels of mice injected with vehicle control”.

Q: How did the “blood glucose after glucose injection compared with corresponding non-prodrug form” value [5] turn out when “Peptide G: prodrug of Peptide F, d-Phe-dVal ester-linked to the Ser at position 2 of Peptide F ([Desaminohistidyl]S([dV-dF])EGTFTSDVSSYLEEQAAKEFIAWLVKGRPSSGAPPPS-NH2; SMILES CC[C@H](C)[C@H](NC(=O)[C@H](Cc1ccccc1)NC(=O)[C@H](CCC(=O)O)NC(=O)[C@H](CCCCN)NC(=O)[C@H](C)NC(=O)[C@H](C)NC(=O)[C@H](CCC(N)=O)NC(=O)[C@H](CCC(=O)O)NC(=O)[C@H](CCC(=O)O)NC(=O)[C@H](CC(C)C)NC(=O)[C@H](Cc1ccc(O)cc1)NC(=O)[C@H](CO)NC(=O)[C@H](CO)NC(=O)[C@@H](NC(=O)[C@H](CC(=O)O)NC(=O)[C@H](CO)NC(=O)[C@@H](NC(=O)[C@H](Cc1ccccc1)NC(=O)[C@@H](NC(=O)CNC(=O)[C@H](CCC(=O)O)NC(=O)[C@H](COC(=O)[C@H](NC(=O)[C@H](N)Cc1ccccc1)C(C)C)NC(=O)CCc1c[nH]cn1)[C@@H](C)O)[C@@H](C)O)C(C)C)C(=O)N[C@@H](C)C(=O)N[C@@H](Cc1c[nH]c2ccccc12)C(=O)N[C@@H](CC(C)C)C(=O)N[C@H](C(=O)N[C@@H](CCCCN)C(=O)NCC(=O)N[C@@H](CCCNC(=N)N)C(=O)N1CCC[C@H]1C(=O)N[C@@H](CO)C(=O)N[C@@H](CO)C(=O)NCC(=O)N[C@@H](C)C(=O)N1CCC[C@H]1C(=O)N1CCC[C@H]1C(=O)N1CCC[C@H]1C(=O)N[C@@H](CO)C(N)=O)C(C)C)” was run?
A: The value was “higher than the blood glucose levels of mice injected with its corresponding non-prodrug form”.

Q: Which total food intake ([6]; seven days) does the source give for “Peptide Y: GLP-1 with AIB at 8, Glu at 22, Cys at 30 linked to 40 kDa PEG, Exendin 4 extension (H[Aib]EGTFTSDVSSYLEEQAAKEFIC(PEG 40 kDa)WLVKGRPSSGAPPPS-NH2)” here?
A: Its total food intake is “decreased”.

Q: What about the “potency in decreasing appetite and decreasing body weight” value ([6]; seven days, FIGS. 16, 17) of the same molecule?
A: The value was “most potent of the four peptides”.

Q: And the “blood glucose concentrations compared with vehicle control” value [5]?
A: The value was “less as compared to the blood glucose levels of mice injected with vehicle control”.

Q: Which results are given for “Peptide Z: pegylated (40 kDa) GLP-1-based prodrug, d-Phe-d-Val ester-linked to Ser at position 11 (H[Aib]EGS([dV-dF])FTSDVSSYLEEQAAKEFIC(PEG 40 kDa)WLVKGRPSSGAPPPS-NH2)”?
A: total food intake ([6]; seven days): decreased; blood glucose concentrations compared with vehicle control [5]: less as compared to the blood glucose levels of mice injected with vehicle control

Q: HSQGTFTSDYARYLDARRAREFIKWLVRGRG [ANK2 (Bayer peptide)] was tested. Which “GLP-1 EC50” value (GLP-1 receptor [7]) did it give?
A: The value was 0.28 nM.
